Laboratory results taken from patent publication EP4635980A1 (Medigene Immunotherapies GmbH, dated 2025).

B1: MDG827 monoclonal antibody (MDG827 hybridoma supernatant) (antibody, V domains shown)
VH: EVQLEESGGGLVQPGRSMKLSCAASGFTFSDYGMAWVLQGPTKGLEWVASISYDGNRPYYRDSVKGRFTISRDNAKSTLYLQMESLRSEDTATYYCVKDLFEIGDFDYWGQGVMVTVSS
VL: DVLMTQTPVSLPVSLGGQVSISCRSSQSLVHSDGNTYLHWYLQKPGQSPQLLIYRVSNRFSGVPDRFTGSGSGTDFTLKISRVEPEDLGVYYCLQSTHFPLTFGSGTKLEIKR
notes: detected with anti-IgG2a secondary antibody; Used as hybridoma supernatant; also called MDG827 antibody; MDG827 Ab
B2: recombinant monoclonal MDG827 antibody (produced in HEK293 cells) (antibody, V domains shown)
VH: B1 VH
VL: B1 VL
notes: used as culture supernatant; Detected with anti-rat IgG2a; also called recombinantly produced MDG827; anti-TRBC MDG827 antibody

Columns and labels:
[1] = target: T1, ALA-5 mutagenic UNI-tag peptide (DKGEAPKDRFSA); test: dot blot, peptide on PVDF membrane
T1 construct: UNI-tag with alanine at position 5 (V5A); also called Uni-TAG-ALA 5; negative control
T1 peptide: DKGEAPKDRFSA

[2] = target: T2, ALA-10 mutagenic UNI-tag peptide (DKGEVPKDRASA); test: dot blot, peptide on PVDF membrane
T2 construct: UNI-tag with alanine at position 10 (F10A); also called Uni-Tag-ALA 10; positive control
T2 peptide: DKGEVPKDRASA

| Binder | binding result [1] | binding result [2] |
| --- | --- | --- |
| B1 | no binding | binds |
| B2 | no binding |  |
